Results as given in PMC11381358, “Phosphorylation of the nuclear poly(A) binding protein (PABPN1) during mitosis protects mRNA from hyperadenylation and maintains transcriptome dynamics”.

Target: T1, His-MBP-PABPN1 WT (human, UniProt Q86U42 1-306)
T1 sequence: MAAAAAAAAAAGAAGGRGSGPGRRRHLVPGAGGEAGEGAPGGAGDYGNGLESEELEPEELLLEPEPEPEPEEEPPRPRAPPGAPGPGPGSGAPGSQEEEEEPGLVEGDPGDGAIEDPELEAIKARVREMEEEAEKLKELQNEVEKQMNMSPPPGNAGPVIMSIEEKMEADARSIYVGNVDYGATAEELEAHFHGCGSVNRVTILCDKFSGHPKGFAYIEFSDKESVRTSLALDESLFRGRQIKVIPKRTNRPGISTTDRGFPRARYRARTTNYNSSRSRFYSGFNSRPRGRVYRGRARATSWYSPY
Experiment: filter binding; 50 mM Tris-HCl pH 8.0, 100 mM KCl, 5 mM MgCl2, 2 mM EDTA, 10% glycerol, 0.2 mg/ml BSA, 0.01% NP-40, 0.5 mM DTT, 2 U/ul RNase OUT; 500 pM RNA, protein 62.5 nM-4
Details: protein: recombinant; tags: N-terminal His-MBP (uncleaved); label: 5'-32P; single strand

Question: Does AAAAAAAAAAAAAAAAAAAAAAAAAAAAAA (ssRNA) [poly(A)30] bind?
Answer: binds
